Source: paper PMC5510750

Molecular target: IFN-λ3 H11 displayed on yeast
Assay: flow cytometry on cells

Chain of IL-10Rβ, monomeric soluble receptor (Q08334 20-220): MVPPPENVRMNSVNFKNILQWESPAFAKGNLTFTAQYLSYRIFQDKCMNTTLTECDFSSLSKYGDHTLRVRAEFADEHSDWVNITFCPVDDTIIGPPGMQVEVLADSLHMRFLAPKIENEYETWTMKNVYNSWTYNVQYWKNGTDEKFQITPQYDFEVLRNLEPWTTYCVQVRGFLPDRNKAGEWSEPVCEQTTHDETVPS

## IL-10Rβ, monomeric soluble receptor (from UniProt Q08334 20-220)
  Kd: 200 nM
